Patent publication US20060073146A1 (Genentech, published 2006)
Each block holds one molecule with its values, some of them ahead of it. Ends that are not written are not given here.

T1: TACI (the 265 amino acid form of human TACI, hTACI (265)), expressed on transfected cells (human, UniProt O14836 1-258)
T1 sequence: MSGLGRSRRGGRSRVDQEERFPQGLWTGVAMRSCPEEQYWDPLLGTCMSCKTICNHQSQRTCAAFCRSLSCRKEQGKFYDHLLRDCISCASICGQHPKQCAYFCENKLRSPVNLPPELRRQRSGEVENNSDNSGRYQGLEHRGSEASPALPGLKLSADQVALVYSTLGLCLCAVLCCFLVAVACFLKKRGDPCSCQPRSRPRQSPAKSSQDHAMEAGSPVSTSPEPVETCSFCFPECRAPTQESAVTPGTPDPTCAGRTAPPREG

T2: DcR3-IgG (IgG1-Fc fusion of the ECD of DcR3) (human, UniProt O95407 30-300, limits assumed)
T2 construct: extracellular domain; Control immunoadhesin; not shown: IgG1 Fc
T2 sequence (looked up): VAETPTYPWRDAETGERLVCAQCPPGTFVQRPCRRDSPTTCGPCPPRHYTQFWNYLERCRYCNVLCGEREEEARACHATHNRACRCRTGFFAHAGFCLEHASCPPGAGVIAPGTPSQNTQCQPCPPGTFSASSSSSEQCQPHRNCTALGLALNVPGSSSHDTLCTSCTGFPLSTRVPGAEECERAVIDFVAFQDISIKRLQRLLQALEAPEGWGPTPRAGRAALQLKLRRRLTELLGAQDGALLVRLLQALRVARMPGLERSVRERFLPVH

B1: BCMA, expressed on transfected cells (receptor)
chain: MLQMAGQCSQNEYFDSLLHACIPCQLRCSSNTPPLTCQRYCNASVTNSVKGTNAILWTCLGLSLIISLAVFVLMFLLRKISSEPLKDEFKNTGSGLLGMANIDLEKSRTGDEIILPRGLEYTVEECTCEDCIKSKPKVDSDHCFPLPAMEEGATILVTTKTNDYCKSLPAALSATEIEKSISAR
B2: AP-EDA (comprising amino acids 241-391 of EDA) (ligand, UniProt Q92838 241-391, looked up)
chain: AGTRENQPAVVHLQGQGSAIQVKNDLSGGVLNDWSRITMNPKVFKLHPRSGELEVLVDGTYFIYSQVEVYYINFTDFASYEVVVDEKPFLQCTRSIETGKTNYNTCYTAGVCLLKARQKIAVKMVHADISINMSKHTTFFGAIRLGEAPAS
notes: range 241-391; Used as conditioned medium; not shown: human placenta alkaline phosphatase (AP)
B3: Flag-LIGHT (ligand, UniProt O43557 82-240, looked up, not shown: small tags and cut ends)
chain: QLIQERRSHEVNPAAHLTGANSSLTGSGGPLLWETQLGLAFLRGLSYHDGALVVTKAGYYYIYSKVQLGGVGCPLGLASTITHGLYKRTPRYPEELELLVSQQSPCGRATSSSRVWWDSSFLGGVVHLEAGEKVVVRVLDERLVRLRDGTRSYFGAFMV
notes: range 82-240; Control ligand; purified on M2 anti-Flag resin; also called Flag-tagged form of LIGHT
B4: TACI-ECD.hFc immunoadhesin (amino acids 2-166 of human TACI fused to human IgG1 Fc) (Fc fusion, not shown: a dimerising Fc or GST)
chain: SGLGRSRRGGRSRVDQEERFPQGLWTGVAMRSCPEEQYWDPLLGTCMSCKTICNHQSQRTCAAFCRSLSCRKEQGKFYDHLLRDCISCASICGQHPKQCAYFCENKLRSPVNLPPELRRQRSGEVENNSDNSGRYQGLEHRGSEASPALPGLKLSADQVALVYST
notes: also called TACI-IgG; TACI-Fc
B5: BCMA-ECD immunoadhesin (amino acids 5-51 of human BCMA fused to human IgG1 Fc) (Fc fusion, not shown: a dimerising Fc or GST)
chain: AGQCSQNEYFDSLLHACIPCQLRCSSNTPPLTCQRYCNASVTNSVKG
modifications: not fully specified (C-terminus); cysteine pairing not given here; also: C-terminal fusion to human IgG1 Fc (limits not given here)
notes: also called BCMA-IgG; BCMA-Fc
B6: Flag-AP-APRIL (ligand)
chain: AVLTQKQKKQHSVLHLVPINATSKDDSDVTEVMWQPALRRGRGLQAQGYGVRIQDAGVYLLYSQVLFQDVTFTMGQVVSREGQGRQETLFRCIRSMPSHPDRAYNSCYSAGVFHLHQGDILSVIIPRARAKLNLSPHGTFLGFVKL
notes: APRIL fused C-terminally to AP, AP fused C-terminally to Flag; not shown: Flag tag of the pCMV-1 Flag vector; human placental alkaline phosphatase
B7: Flag-APRIL (ligand, not shown: small tags and cut ends)
chain: B6 chain
notes: also called Flag-tagged APRIL fusion protein

Key:
Flag-APRIL [1] = biological target: B7; test: ELISA: Flag-APRIL plus control IgG on BCMA-IgG captured by anti-human Fc; bound Flag-APRIL detected with biotinylated anti-Flag
Flag-APRIL [2] = biological target: B7; test: ELISA: Flag-APRIL plus control IgG on TACI-IgG captured by anti-human Fc; bound Flag-APRIL detected with biotinylated anti-Flag
[3] = biological target: T3, Flag-AP-TALL-1 (Example 2 construct, TALL-1 amino acids 135-285) (human, UniProt Q9Y275 135-285); test: conditioned medium on receptor-transfected COS 7 cells, in situ AP staining
T3 construct: not shown: Flag tag of the pCMV-1 Flag vector; human placental alkaline phosphatase
T3 sequence (Q9Y275 135-285): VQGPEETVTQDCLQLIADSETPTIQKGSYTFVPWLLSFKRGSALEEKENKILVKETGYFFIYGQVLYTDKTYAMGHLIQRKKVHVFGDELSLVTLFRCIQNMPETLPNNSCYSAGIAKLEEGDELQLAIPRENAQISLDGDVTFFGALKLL

Flag-AP-APRIL = biological target: B6; test: as above
[4] = biological target: T1, TACI (the 265 amino acid form of human …); test: conditioned medium on TACI-transfected COS 7 cells, in situ AP staining
Description: In an in vitro assay, COS 7 cells (ATCC) were seeded into 12 well plates 24 hours before transfection. The cells were then transfected with 1 microgram TACI (the 265 amino acid form of human TACI described above, cloned in pRK5B vector, infra) or vector plasmid (pRK5B) alone. 18-24 hours after transfection, the cells were incubated with conditioned medium containing AP-TALL-1; AP-TNF-alpha; or AP-EDA for 1 hour at room temperature and stained for AP activity in situ as described in Tartaglia et al., Cell, 83:1263-1271 (1995).

[5] = biological target: B4; test: co-immunoprecipitation (protein A or anti-Flag M2 agarose) and Western blot
Description: (§1) One μg of the purified human or Flag-LIGHT (control), Flag-APRIL, or Flag-TALL-1, or Flag-AP-APRIL, or Flag-AP-TALL-1 was incubated with 1 μg of purified human immunoadhesin containing the IgG1-Fc fusion of the ECD of DcR3 (control; Pitti et al., Nature, 396:699-703 (1998)) or TACI or BCMA overnight at 4° C. in duplicate. The TACI-ECD.hFc immunoadhesins were prepared by methods described in Ashkenazi et al., Proc. Natl. Acad. Sci., 88:10535-10539 (1991). The immunoadhesin constructs consisted of amino acids 2-166 of the human TACI polypeptide (see FIG. 1). The TACI-ECD constructs were expressed in CHO cells using a heterologous signal sequence (pre-pro trypsin amino acids 1-17 of pCMV-1 Flag (Sigma)) and encoding the human IgG1 Fc region downstream of the TACI sequence, and then purified by protein A affinity chromatography. The BCMA-ECD immunoadhesins were prepared by methods described in Ashkenazi et al., as cited above. The immunoadhesin constructs consisted of amino acids 5-51 of the human BCMA polypeptide (see FIG. 2). The BCMA-ECD constructs were expressed in CHO cells using a heterologous signal sequence (pre-pro trypsin amino acids 1-17 of pCMV-1 Flag (Sigma)) and encoding the human IgG1 Fc region downstream of the BCMA sequence, and then purified by protein A affinity chromatography.
(§2) One set of reactions (FIG. 8; Panels A-C) was subjected to immunoprecipitation through the receptor-immunoadhesin with protein A-agarose (Repligen). The second set of reactions (FIG. 8; panels D-F) was subjected to immunoprecipitation through the Flag-tagged ligand with Anti-Flag mAb-M2-agarose (Sigma). The immunoprecipitates were then analyzed by Western blot with horseradish peroxidase-conjugated anti-Flag M2 mAb (Sigma) to detect the Flag-tagged ligands (FIGS. 8A-C) or horseradish peroxidase-conjugated goat anti-human IgG pAb (Amersham) to detect the receptor-immunoadhesins (FIGS. 8D-F).

[6] = biological target: T4, Human TNF-alpha, membrane form on transfected COS 7 cells (Flag tag inserted between amino acid 70 and 71) (human, UniProt P01375 1-233); test: Fc fusion on ligand-transfected COS 7 cells, biotinylated anti-human antibody and Cy3-streptavidin staining
T4 construct: whole, on cells
T4 sequence (P01375 whole entry, the tested form may be a part): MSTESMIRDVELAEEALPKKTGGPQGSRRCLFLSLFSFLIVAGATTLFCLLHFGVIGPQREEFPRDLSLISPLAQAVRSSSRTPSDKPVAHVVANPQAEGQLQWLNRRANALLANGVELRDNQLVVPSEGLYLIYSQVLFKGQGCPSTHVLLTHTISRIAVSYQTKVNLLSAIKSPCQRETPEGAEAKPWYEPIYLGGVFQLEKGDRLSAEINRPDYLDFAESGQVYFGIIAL
Description: Additional assays were conducted to determine whether TACI could serve as a receptor for other members of the TNF family of ligands. COS 7 cells (ATCC) were transiently transfected (using Lipofectamine reagent) with membrane forms of various ligands of TNF family. Among the ligands tested were APRIL, TALL-1, 4-1 BBL, CD27L, CD30L, CD40L, EDA, FasL, GITRL, LT-alpha, OX-40L, RANKL, TNF-alpha, TNF-beta and Apo2L/TRAIL.
For the detection of TNF-alpha expression on the cell surface, a Flag tag was inserted between amino acid 70 and amino acid 71 (using the numbering according to the sequence in Pennica et al., supra). An extracellular region of TALL-1 (aa 75-285; see FIG. 3), 4-1BBL (aa 59-254; Goodwin et al., Eur. J. Immunol., 23:2631-2641 (1993)), CD27 ligand (aa 40-193; Goodwin et al., Cell, 73:447-456 (1993)), CD30 ligand (aa 61-234; Smith et al., Cell, 73:1349-1360 (1993)), RANKL (aa 71-317; see WO98/28426), Apo-2 ligand (aa 40-281; see WO97/25428) or Apo-3L (aa 46-249; see WO99/19490) was individually cloned at the BamHI site. […] For APRIL (see FIG. 4) and EDA (Srivastava et al., supra), full length cDNA clones without Flag tag were used.
Transfected COS 7 cells were subsequently incubated with TACI.ECD.hFC immunoadhesin (prepared as described above). […]

Flag-APRIL [7] = biological target: B7; test: co-immunoprecipitation and Western blot
Description: as §1, with “The immunoadhesin constructs consisted of amino acids 5-51 of the human BCMA polypeptide (see FIG. 2). The BCMA-ECD constructs were expressed in CHO cells using a heterologous signal sequence (pre-pro trypsin amino acids 1-17 of pCMV-1 Flag (Sigma)) and encoding the human IgG1 Fc region downstream of the BCMA sequence, and then purified by protein A affinity chromatography.” left out
as §2, with “The second set of reactions (FIG. 8; panels D-F) was subjected to immunoprecipitation through the Flag-tagged ligand with Anti-Flag mAb-M2-agarose (Sigma).” left out

Flag-LIGHT = biological target: B3; test: co-immunoprecipitation (protein A or anti-Flag M2 agarose) and Western blot
Description: as §1, §2

[8] = biological target: T2, DcR3-IgG (IgG1-Fc fusion of the ECD of …); test: as above
Description: as §1, §2

[9] = biological target: T1, TACI (the 265 amino acid form of human …); test: conditioned medium on receptor-transfected COS 7 cells, in situ AP staining

% Max Binding to BCMA (Flag-APRIL [1]): 100%
% Max Binding to TACI (Flag-APRIL [2]): 100%
Molecule: IgG Ctrl (antibody)

Molecule: B1
binding result [3]: binds
binding result (Flag-AP-APRIL): binds

Molecule: B2
binding result [4]: no binding

Molecule: B3
binding result [5]: no binding (tested: 1 µg of each)

Molecule: B4
binding result [6]: no binding (tested: 1 µg/ml)

Molecule: B5
binding result (Flag-APRIL [7]): binds
binding result (Flag-LIGHT): no binding (tested: 1 µg of each)
binding result [6]: no binding

Molecule: B6
binding result [8]: no binding (tested: 1 µg of each)
binding result [9]: binds

Molecule: B7
binding result [8]: no binding (tested: 1 µg of each)
